Reference: patent US5800815, “Antibodies to P-selectin and their uses” (Cytel Corporation, dated 1998)
Changes are numbered by the printed parent chain. No end group written: not given here.

Columns and labels:
[1] = molecular target: T1, recombinant soluble P-selectin (Homo sapiens (Human), UniProt P16109); assay: ELISA on plates coated with rsP-selectin, COS cell supernatants
Procedure: Media from the transfected COS cells were assayed by ELISA to quantify levels of human antibody produced and analyze capacity to bind to recombinant soluble P-selectin (rsP-selectin). Immulon microtiter plates ([…], #011-010-3355) were coated with 100 μl/well of a solution of goat anti-human IgG (whole molecule, SIGMA #I-1886) to a final concentration of 12.5 μg/ml or a solution of rsP-selectin (1.2 mg/ml) diluted in Dulbecco's phosphate buffered saline (DPBS). Plates were coated overnight at 4° C. or for 2 h at 37° C. The plates were then washed three times with DPBS. The plates were then blocked with 400 μl/well of DPBS+1% bovine serum albumin (BSA, SIGMA, #A-7888) for one h or longer at room temperature. The plates were then washed three times with DPBS.
Serial dilutions of the monoclonal antibodies in DPBS+ 1% BSA were added to the plates (100 μl/well), and the plates were incubated for 1 h at room temperature. The plates were then washed three times with DPBS. 100 μl/well of a second antibody (goat anti-human IgG peroxidase conjugate, SIGMA #A-8867) diluted 1 to 1000 in DPBS+ 1% BSA was added to the plates, and the plates were incubated for one h at room temperature. The plates were then washed three times with DPBS. […] The plates were read at 450 nm in a […] […]

[2] = molecular target: T1, recombinant soluble P-selectin; assay: competitive ELISA on rsP-selectin; reference unlabelled PB1.3
Procedure: (§1) A 96-well plate (MICROTEST III, FALCON #3912) was coated with 50 μl/well of rsP-selectin (diluted to 2 μg/ml in DPBS) overnight at 4° C. or 90 min at 37° C. The plate was inverted and residual fluid was tapped away.
(§2) The coated plate and an additional blank plate were blocked with 200 µl/well of DPBS+1% bovine serum albumin (BSA, SIGMA #A-7888), for 1 h at room temperature. The blank plate was inverted and the residual blocking fluid was tapped away. The rsP-selectin coated plate was allow to continue blocking during the antibody dilution period. Serially diluted sample antibodies (in DPBS+1% BSA) were added to the blank plate at 50 µl/well. The initial concentrations of the antibodies were 100 µg/ml. Biotinylated-PB1.3 (diluted to 0.3 µg/ml in DPBS+1% BSA) was added to the sample antibodies in the blank plate, 50 µl/well, and mixed by pipetting up and down. The rsP-selectin coated plate was washed three times with DPBS. The sample antibody/biotinylated -PB1.3 mixture was pipetted into the plate coated with rsP-selectin, 50 µl/well, and allowed to incubate for one h at room temperature. The plate was then washed three times with DPBS.
(§3) Streptavidin horse radish peroxidase conjugate (PIERCE #21124) diluted 1:2000 in DPBS+1% BSA was added to the plate, 50 µl/well and allowed to incubate for 1 h at room temperature. The plate was then washed three times with DPBS.

[3] = molecular target: T1, recombinant soluble P-selectin; assay: competitive ELISA on rsP-selectin; competitor biotinylated PB1.3
Procedure: as §1, §2, §3

P-selectin Δ5CRP = P-selectin Δ5CRP (human, UniProt P16109); assay: direct ELISA of COS cell supernatants
[4] = molecular target: T1, recombinant soluble P-selectin; assay: competitive ELISA on rsP-selectin; unlabelled PB1.3 against biotinylated PB1.3
Procedure: as §1, §2, §3

peptide CQNRYTDLVAIQNKNE = molecular target: T2, peptide CQNRYTDLVAIQNKNE; assay: indirect: soluble peptide as competitor in ELISA of PB1.3 on affinity purified P-selectin
T2 peptide: CQNRYTDLVAIQNKNE-NH2
Procedure: III. […] Dilutions of mu MAb PB1.3 in DPBS+1% BSA were mixed with either 0.35 mg/ml CQNRYT-[…] (SEQ ID No: 1) in PBS, or as a control, PBS alone. After 1 hr, 50 μl of each antibody dilution was added to the microtiter plate, and incubated for 1 hr. The plate was washed with DPBS, and a 1 to 1000 dilution of sheep anti-mouse IgG horseradish peroxidase conjugate in DPBS+ 1% BSA was added. After 1 hr, the plate was washed, the substrate TMB was added, and the color development was stopped and the plates read as above.

B1: reshaped MAb PB1.3, heavy chain CY1748RHA with light chain CY1748RLB (antibody, V domains shown)
VH: EAQLVQSGAEVKKPGASVKVSCKASGYTFTNYVMHWVRQAPGQRLEWMGFINPSNDGPKYNERFKNRVTITSDTSASTAYMELSSLRSEDTAVYYCARARPGFDWYFDVWGQGTLVTVSS
VL: DIQMTQSPSTLSASVGDRVTVTCKASQNVATNVVWYQQKPGEAPKALIYTASYRFSGVPSRFSGSGSGTDFTLTISSLQSDDFATYYCQQYNNYPYTFGQGTKLEIK
B1: binds [1].

B2: reshaped MAb PB1.3 (HA/LA), IgG1 isotype (antibody, V domains shown)
VH: B1 VH
VL: B1 VL with S60E
With B2 the “binding relative to PB1.3” value [2] was 50% and the IC50 [3] was 2 µg/mL.

B3: reshaped MAb PB1.3 (HB/LD), IgG4 isotype (antibody, V domains shown)
VH: B1 VH with E1Q, A2V
VL: B1 VL with D70E
In the case of B3, the “binding relative to PB1.3” value [2] is reported as 50%.

B4: reshaped MAb PB1.3, heavy chain CY1748RHA with light chain CY1748RLC (antibody, V domains shown)
VH: B1 VH
VL: B1 VL with S60E, D70E
B4: binds [1].

B5: mu MAb PB1.3 (antibody, V domains shown)
VH: EAQLQQSGPELVEPGASVKVSCKASGYTFTNYVMHWVKQKPGQGLEWIGFINPSNDGPKYNERFKNKATLTSDKSSSTAYMELSSLTSEVSAVYFCARARPGFDWYFDVWGAGTTVTVSS
VL: DIVMTQSQKFMSTSVGDRVSVTCKASQNVATNVVWYQQRPGQSPKALIYTASYRFSGVPERFSGSGSGTDFTLTITNVQSEDLADYFCQQYNNYPYTFGGGTKVEIQ
B5 was tested, and the binding result (P-selectin Δ5CRP) was “no binding”, the IC50 [4] was 1 µg/mL and the binding result (peptide CQNRYTDLVAIQNKNE) was “no binding (tested: 0.35 mg/ml)”.
